For the data set, the system named is 4T1 orthotopic tumor-bearing BALB/c mice. Description: in vivo. To be noted: mouse, iv, 4 h. As to the method:
4T1 orthotopic BALB/c mouse model. The cells were removed from the flasks, concentrated, and resuspended in minimal media for cell counting. The cells were then diluted to contain approximately 1 million cells in 30 μL of media (for orthotopic allografts). Following an MSKCC Institutional Animal Care and Use Committee approved protocol, 8-10 week old BALB/c mice (Charles River Laboratories, Wilmington, MA) were surgically implanted with one million 4T1 cancer cells into the first or the last mammary fat pad of the right side of the animal using aseptic surgical techniques and sterile staple closures while the mice were under anesthetic. Additionally, mice were given injections of meloxicam (24 h pain killer) in the scruff and bupivacaine intradermally prior to surgical incisions. One day post surgery, the mice were again given meloxicam and checked to ensure that the closure was healing. Two and three days post surgery, the mice were checked to ensure that the animals were healthy and recovering well from the surgery. Five to seven days post surgery, the staples were removed. Five to nine days post surgery, the mice were injected with 50-75 μCi (0.9-0.4 nmol) of the respective radiopharmaceutical for in vivo biodistribution or 500-600 μCi (9-11 nmol) for in vivo imaging. The mice receiving ^64Cu-NOTA-pHLIP were sacrificed at 1, 2, 4, 12, 24, 36, and 48 h; the mice receiving [^18F]—AlF-NOTA-pHLIP were sacrificed at 0.5, 1, 2, 4, 6 and 8 h. The 4T1 tumors in this study were purposely used 5-9 days after inoculation to ensure lower tumoral pH. Animal models. Animal studies were conducted according to MSKCC IACUC-approved animal protocol. 4T1 (orthotopic breast cancer allografts of 1×10^6 cells surgically implanted in the mammary fat pad) and B16-F10 (orthotopic melanoma allografts of 1×10^5 cells injected intradermally on the shoulder) tumors were orthotopically inoculated in media in female BALB/c and C57Bl/6 mice (Charles River Laboratories (CRL)), respectively. Additionally, PC3 (3×10^6 cells) or LNCaP (3-6×10^6 cells) tumors were subcutaneously xenografted on the shoulder of athymic nude male mice (CRL). Mice were used once tumor volumes were approximately 90-300 mm^3. In vivo animal PET imaging and biodistribution. Mice were injected with radiolabeled NOTA-pHLIP derivatives i.v. (500-700 μCi/mouse for PET or SPECT imaging studies and 25-100 μCi/mouse for biodistribution studies). All injections were less than 200 μL with <10% EtOH in sterile PBS. PET images were obtained with the mice under anesthesia in an Inveon PET-CT or microPET Focus 120 (Siemens) at 0.5-48 h p.i. All images were analyzed using ASIPro VM (Concorde Microsystems). SPECT images were obtained with the mice under anesthesia in a NanoSPECT/CT Plus at 4-24 h p.i. All SPECT images were reconstructed using HiSPECT and analyzed using InVivoScope. Dissections for ex vivo biodistribution were performed on mice after CO2 asphyxiation or cervical dislocation while anesthetized at reported time points. Weight of the syringe prior to injection and after injection was used to determine the mass of injectate. Activity of the syringe prior to injection and after injection was used to determine the percent of injectate administered. The mass injected was corrected by the percent of radioactivity injected. Four to five aliquots (10 μL) were weighed and counted as internal standards for each study. All of the collected organs were counted using an automatic gamma counter (Wizard 3″, PerkinElmer, Waltham, MA). The total injected dose was found as the mass injected dose×fraction radioactivity injected×internal standard average counts/g. The percent injected dose (% ID) was determined as the counts for the tissue×100/total injected dose. The % ID/g was calculated as the % ID/tissue weight. The average and standard deviation of the % ID and % ID/g was determined using normal methods (n−1) for each set of mice.

Regarding `CC(C)C[C@@H](NC(=O)[C@@H](CC(C)C)NC(=O)[C@@H](CC(=O)O)NC(=O)[C@@H](CC(C)C)NC(=O)[C@@H](CC(C)C)NC(=O)[C@@H](CC(C)C)NC(=O)[C@H](NC(=O)[C@@H](CC(=O)O)NC(=O)[C@H](NC(=O)[C@H]1CCCN1C(=O)[C@@H](Cc1ccccc1)NC(=O)[C@@H](CC(C)C)NC(=O)[C@@H](CC(C)C)NC(=O)[C@@H](CC(=O)O)NC(=O)[C@@H](CC(C)C)NC(=O)[C@@H](Cc1ccc(O)cc1)NC(=O)[C@@H](C)NC(=O)[C@@H](CCCNC(=N)N)NC(=O)[C@@H](Cc1c[nH]c2ccccc12)NC(=O)[C@H]1CCCN1C(=O)[C@@H](CC(N)=O)NC(=O)[C@@H](CCC(N)=O)NC(=O)[C@@H](CC(=O)O)NC(=O)[C@@H](CC(=O)O)NC(=O)[C@@H](CSC1CC(=O)N(CCNC(=O)CN2CCN(CC(=O)O)CCN(CC(=O)O)CC2)C1=O)NC(=O)[C@@H](C)N)[C@H](C)O)[C@H](C)O)C(=O)N[C@H](Cc1c[nH]c2ccccc12)C(=O)O` (single isomer, unassigned) [^68Ga-NO2A-cysVar3, metal not drawn], the “biodistribution, Tumor (4T1 tumoral uptake)” value (female, BALB/c) was 6±2 % ID/g.

With `CC(C)C[C@@H](NC(=O)[C@@H](CCC(=O)O)NC(=O)[C@@H](CC(C)C)NC(=O)[C@@H](CC(C)C)NC(=O)[C@@H](CC(C)C)NC(=O)[C@H](NC(=O)[C@@H](CCC(=O)O)NC(=O)[C@H](NC(=O)[C@H]1CCCN1C(=O)[C@@H](Cc1ccccc1)NC(=O)[C@@H](CC(C)C)NC(=O)[C@@H](Cc1c[nH]c2ccccc12)NC(=O)[C@@H](CCC(=O)O)NC(=O)[C@@H](CC(C)C)NC(=O)[C@@H](Cc1ccc(O)cc1)NC(=O)[C@@H](CCCNC(=N)N)NC(=O)[C@@H](C)NC(=O)[C@@H](Cc1c[nH]c2ccccc12)NC(=O)[C@H]1CCCN1C(=O)[C@@H](CC(N)=O)NC(=O)[C@@H](CCC(N)=O)NC(=O)[C@@H](CCC(=O)O)NC(=O)[C@@H](CCC(=O)O)NC(=O)[C@@H](CSC1CC(=O)N(CCNC(=O)CN2CCN(CC(=O)O)CCN(CC(=O)O)CC2)C1=O)NC(=O)[C@@H](C)N)[C@H](C)O)[C@H](C)O)C(=O)O` (single isomer, unassigned) [^64Cu-NO2A-cysVar7, metal not drawn], the “biodistribution, Blood” value was determined as 2.31 ± 0.18 % ID/g; the “biodistribution, Bone” value was found to be 1.57 ± 0.18 % ID/g; the “biodistribution, Brain” value is on record as 0.25 ± 0.02 % ID/g; the “biodistribution, Heart” value was 2.68 ± 0.33 % ID/g. Further, the “biodistribution, Kidneys” value amounted to 95.5 ± 11.9 % ID/g; the “biodistribution, L. intestine” value stood at 8.19 ± 0.85 % ID/g; the “biodistribution, Liver” value was found to be 15.6 ± 1.58 % ID/g; the “biodistribution, Lungs” value worked out at 4.21 ± 0.23 % ID/g. Also, the “biodistribution, Muscle” value came to 0.64 ± 0.07 % ID/g; the “biodistribution, Pancreas” value amounted to 1.84 ± 0.10 % ID/g; the “biodistribution, S. intestine” value was 6.37 ± 0.11 % ID/g; the “biodistribution, Skin” value came out at 2.59 ± 0.05 % ID/g. Further, the “biodistribution, Spleen” value amounted to 3.31 ± 0.24 % ID/g; the “biodistribution, Stomach” value worked out at 3.33 ± 0.31 % ID/g; the “biodistribution, Tumor (4T1 tumoral uptake)” value is recorded as 9.07 ± 1.81 % ID/g.

The record behind these values is patent publication US12551583B2, “Radiolabeled ligands for targeted PET/SPECT imaging and methods of their use” (MEMORIAL SLOAN KETTERING CANCER CENTER, priority 2016, dated 2026).
